Drawing on the supplement of paper PMC10724198, this text covers protein stability index for nine sequences.

± gives the standard deviation of the averaged measurements.

The series concerns Saccharomyces cerevisiae. Nature of the series: protein stability index of tFT-peptide fusion (C-terminal peptide) (PSI (0-1 scale)); higher = more stable (slower turnover). As for the experimental part: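 MPS profiling in S. cerevisiae of the tFT-X12 degron library: putative degron peptides plus stable controls, 12 aa, fused to the C-terminus of a sfGFP-mCherry timer. Cells are FACS-sorted into 8 mCherry/sfGFP bins and deep-sequenced. PSI runs from 0 (unstable) to 1 (stable). Backgrounds are wild type, das1Δ and doa10Δ at 30 °C, and wild type, das1Δ, cdc34-1 and cdc53-1 at 37 °C; 2-3 technical replicates each.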

Where [1] appears, read: genetic background: cdc34-1, temperature: 37 C.
Where [2] appears, read: genetic background: cdc53-1, temperature: 37 C.
Setting [3] is: genetic background: das1 deletion, temperature: 30 C.
[4] abbreviates: genetic background: das1 deletion, temperature: 37 C.
Setting [5] is: genetic background: doa10 deletion, temperature: 30 C.
Setting [6] is: genetic background: wild type, temperature: 30 C.
Setting [7] is: genetic background: wild type, temperature: 37 C.
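Also: PSI is a weighted mean of sequencing reads over stability bins, variants kept only with over 10 reads, mCherry proximal and sfGFP distal, peptide attached via GGGS linker.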

GGGGMGRRVGVG displayed a protein stability index under setting [1] of 0.361 ± 0.036; a protein stability index under setting [2] of 0.4177 ± 0.0019; a protein stability index under setting [3] of 0.396 ± 0.0093; a protein stability index under setting [4] of 0.4202 ± 0.0022; a protein stability index under setting [5] of 0.4009 ± 0.0015; a protein stability index under setting [6] of 0.398 ± 0.011. The same sequence yielded a protein stability index under setting [7] of 0.415 ± 0.0084.
In the case of LCLPLYIRILSF, the protein stability index came out at 0.0413 ± 0.0034 under setting [1]; 0.052 ± 0.0091 under setting [2]; 0.145 ± 0.03 under setting [3]; 0.18258 ± 1.6e-05 under setting [4]; 0.161 ± 0.0023 under setting [5]; 0.129 ± 0.016 under setting [6]. For the same sequence, the protein stability index under setting [7] is 0.126 ± 0.013.
For the sequence LPPTPPLSPPPH, the protein stability index by setting is: under setting [1], 0.644 ± 0.025; under setting [2], 0.688 ± 0.0077; under setting [3], 0.435 ± 0.028; under setting [4], 0.5935 ± 0.0017; under setting [5], 0.414 ± 0.0084; under setting [6], 0.433 ± 0.014. Under setting [7], the protein stability index was 0.5864 ± 0.005.
As for LSPRPPAPYYSP, the protein stability index reads like this: under setting [1], 0.657 ± 0.067; under setting [2], 0.733 ± 0.0089; under setting [3], 0.662 ± 0.041; under setting [4], 0.725 ± 0.014; under setting [5], 0.676 ± 0.03; under setting [6], 0.662 ± 0.028. For the same sequence, the protein stability index under setting [7] is 0.7271 ± 0.0069.
Take PSPHRAPPGGHP: the protein stability index amounted to 0.68 ± 0.059 under setting [1]; 0.699 ± 0.026 under setting [2]; 0.6636 ± 0.0019 under setting [3]; 0.7271 ± 0.0067 under setting [4]; 0.673 ± 0.03 under setting [5]; 0.688 ± 0.04 under setting [6]. Besides, the protein stability index under setting [7] worked out at 0.701 ± 0.0029.
In the case of RKKIRTYINENV, the protein stability index runs as follows: under setting [1], 0.686 ± 0.079; under setting [2], 0.699 ± 0.038; under setting [3], 0.612 ± 0.018; under setting [4], 0.766 ± 0.05; under setting [5], 0.271 ± 0.018; under setting [6], 0.334 ± 0.04. Besides, the protein stability index under setting [7] is 0.568 ± 0.015.
In the case of RPPPTPRSVLLN, the protein stability index turned out to be 0.67 ± 0.021 under setting [1]; 0.7154 ± 0.0015 under setting [2]; 0.668 ± 0.011 under setting [3]; 0.71 ± 0.038 under setting [4]; 0.265 ± 0.024 under setting [5]; 0.286 ± 0.024 under setting [6]. Further, under setting [7], the protein stability index was determined as 0.506 ± 0.011.
For SVPCWVFLFCLA, the protein stability index is 0.349 ± 0.01 under setting [1]; 0.416 ± 0.028 under setting [2]; 0.281 ± 0.03 under setting [3]; 0.462 ± 0.02 under setting [4]; 0.184 ± 0.016 under setting [5]; 0.227 ± 0.025 under setting [6]. For the same sequence, under setting [7], the protein stability index stood at 0.4033 ± 0.0033.
For the sequence TWGGGRVSLGGG, the protein stability index was determined as 0.316 ± 0.038 under setting [1]; 0.4048 ± 0.0019 under setting [2]; 0.361 ± 0.013 under setting [3]; 0.4176 ± 0.0019 under setting [4]; 0.363 ± 0.01 under setting [5]; 0.364 ± 0.017 under setting [6]. The same sequence displayed a protein stability index under setting [7] of 0.407 ± 0.028.
